Test results as given in PMC7712654 (2020).

Target: T1, CTI2 (Arabidopsis thaliana, UniProt Q9M8T2)
T1 chain: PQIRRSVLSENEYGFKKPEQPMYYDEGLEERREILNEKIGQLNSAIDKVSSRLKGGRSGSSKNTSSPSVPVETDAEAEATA
Assay: MST

Kd: 1400 nM
B1: alphaCT (protein)
chain: INMKKREAVFSDSRKLQGEVDKLKEQILKAKETSTEAEPSSEVLNEMIEKLKSEIDDEYTEAAIAVGLEERLTAMREEFSKASSEEHLMHPVLIEKIEKLKEEFNTRLTDAPNYESLKSKLNMLRDFSRAKAASEATSLKKEINKRFQEAVDRPEIREKVEAIKAEVASSGASSFDELPDALKEKVLKTKGEVEAEMAGVLKSMGLELDAVKQNQKDTAEQIYAANENLQEKLEKLNQEITSKIEEVVRTPEIKSMVELLKVETAKASKTPGVTEAYQKIEALEQQIKQKIAEALNTSGLQEKQDELEKELAAARELAAEESDGSVKEDDDDDEDSSESGKSEMVNPSFA
